For one data set, the system named is T1, human I-1 (S67D/T75D).
T1 sequence: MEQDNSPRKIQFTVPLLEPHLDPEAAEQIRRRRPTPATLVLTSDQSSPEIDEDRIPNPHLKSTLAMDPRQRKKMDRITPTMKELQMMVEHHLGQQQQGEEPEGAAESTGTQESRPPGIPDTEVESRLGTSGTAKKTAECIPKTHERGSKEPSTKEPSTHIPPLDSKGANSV

Data set [1] relates to human I-1 (T75A), unphosphorylated.
Data set [2] deals with human I-1 (S67A), unphosphorylated.
Data set [3] relates to human phosphatase inhibitor-1 (I-1) wild type, dephosphorylated.

Consider “Protein Kinase A (PKA, cAMP-dependent protein kinase), Upstate Biotechnology”, for which the “32P incorporation upon PKA incubation, decrease against wild-type” value in the data set on human I-1 (S67D/T75D) is given as “the double mutant incorporated 29% less radioactivity than the wild-type”.
Turning to “Protein Kinase C alpha (PKC-α), Upstate Biotechnology”, in data set [1], the “32P incorporated per protein at 45 min, percent of wild type” value is given as “I-1 (T75A) incorporated 33.8±12.7% of the levels in wild type (100%)”; the “stoichiometry of phosphorylation at 45 min” value (“stoichiometry” below) is “the incorporation of Pi into I-1(S67A) and I-1(T75A) were reduced to 0.35 and 0.30 mol Pi/mol protein, respectively”. In data set [2], the “32P incorporated per protein at steady state (20-45 min), percent of wild type” value was “I-1 (S67A) incorporated 40±8.6% of the radioactivity levels present in wild types (100%)”; the “stoichiometry” value is “the incorporation of Pi into I-1(S67A) and I-1(T75A) were reduced to 0.35 and 0.30 mol Pi/mol protein, respectively”. In addition, in data set [3], the “stoichiometry” value is reported as “I-1 wild-type was phosphorylated by PKC-α for 45 min to a stoichiometry of 0.88 mol Pi/mol protein”. Besides, the “32P incorporation upon PKC-α incubation” value in the data set with human I-1 (S67A/T75A) was “mutation of both Ser-67 and Thr-75 to Ala abolishes ^32P-incorporation into I-1”.

(Values after patent publication US20120053125.)
